Residue numbers refer to the chain shown, from its start. Each block holds one binder with its values, some of them ahead of it.
Legend:
[1] = molecular target: T1, human CEACAM1 protein (human, UniProt P13688 35-428); test: ELISA, antigen coated on plate
T1 construct: also called huCEACAM1
T1 sequence (looked up): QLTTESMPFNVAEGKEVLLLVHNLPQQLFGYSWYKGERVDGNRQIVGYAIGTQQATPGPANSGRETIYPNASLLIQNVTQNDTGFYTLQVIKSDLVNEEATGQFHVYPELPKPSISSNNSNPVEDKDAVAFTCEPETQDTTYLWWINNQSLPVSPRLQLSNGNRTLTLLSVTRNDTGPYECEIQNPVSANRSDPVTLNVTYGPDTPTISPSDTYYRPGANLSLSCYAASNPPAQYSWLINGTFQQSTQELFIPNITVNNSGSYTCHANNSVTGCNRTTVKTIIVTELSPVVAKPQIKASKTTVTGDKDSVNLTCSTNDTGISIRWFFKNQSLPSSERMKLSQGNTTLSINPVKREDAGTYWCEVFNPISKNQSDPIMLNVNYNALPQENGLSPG
Excerpt: (§1) Binding of recombinant anti-CEACAM5/6 dual-binding monoclonal antibodies against human and cynomolgus CEACAM5, and human CEACAM6 (Uniprot P40199), human CEACAM 1, 3 (NP_001806.2, Sino Biological 11933-H08H) and 8 (NP_001807.2, Acro Bio CE8-H5224) were detected by ELISA. Anti-CEACAM5/6 dual-antibodies were serially diluted in staining buffer (PBS containing 2% FBS). […] ELISA was used to test the binding between antibody containing supernatant or purified antibodies and the antigen. Briefly, the antigens were coated on a 96-well high binding plate overnight at 4° C. The plate was washed with PBST three times, incubated with blocking buffer (2% Bovine Serum Albumin) for one hour at 37° C., washed with PBST three times and incubated with antibody containing supernatant or purified antibodies at desired dilutions or concentrations for one hour at 37° C. A secondary antibody, anti-human Fc-HRP (Jackson Laboratory, 109-035-097) was used for detection of the targeted antibody. TMB and stopping solution were used for detection of HRP signal. The HRP signal was read on a SPECTRAMAX plate reader.

[2] = molecular target: T2, human CEACAM5 protein (human, UniProt P06731 35-685); test: ELISA, antigen coated on plate
T2 construct: also called huCEACAM5
T2 sequence (looked up): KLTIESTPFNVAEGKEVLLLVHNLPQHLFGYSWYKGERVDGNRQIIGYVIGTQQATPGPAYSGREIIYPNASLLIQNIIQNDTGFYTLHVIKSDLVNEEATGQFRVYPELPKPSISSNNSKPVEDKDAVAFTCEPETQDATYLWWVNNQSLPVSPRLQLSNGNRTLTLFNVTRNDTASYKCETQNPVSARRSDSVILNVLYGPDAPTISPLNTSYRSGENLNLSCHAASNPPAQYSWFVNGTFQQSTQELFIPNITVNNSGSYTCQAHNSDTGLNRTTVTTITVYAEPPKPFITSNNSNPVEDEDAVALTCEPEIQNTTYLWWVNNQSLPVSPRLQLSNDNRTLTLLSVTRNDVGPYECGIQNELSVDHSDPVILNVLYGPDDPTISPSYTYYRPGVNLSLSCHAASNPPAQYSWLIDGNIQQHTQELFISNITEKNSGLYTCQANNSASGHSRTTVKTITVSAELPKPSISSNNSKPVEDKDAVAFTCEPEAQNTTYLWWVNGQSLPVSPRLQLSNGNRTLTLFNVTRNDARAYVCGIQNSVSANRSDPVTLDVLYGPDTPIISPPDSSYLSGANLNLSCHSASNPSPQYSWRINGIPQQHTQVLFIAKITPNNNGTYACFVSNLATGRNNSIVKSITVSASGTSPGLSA
Excerpt: as §1

[3] = molecular target: T3, human CEACAM6 protein (human, UniProt P40199 35-320); test: ELISA, antigen coated on plate
T3 construct: also called huCEACAM6
T3 sequence (looked up): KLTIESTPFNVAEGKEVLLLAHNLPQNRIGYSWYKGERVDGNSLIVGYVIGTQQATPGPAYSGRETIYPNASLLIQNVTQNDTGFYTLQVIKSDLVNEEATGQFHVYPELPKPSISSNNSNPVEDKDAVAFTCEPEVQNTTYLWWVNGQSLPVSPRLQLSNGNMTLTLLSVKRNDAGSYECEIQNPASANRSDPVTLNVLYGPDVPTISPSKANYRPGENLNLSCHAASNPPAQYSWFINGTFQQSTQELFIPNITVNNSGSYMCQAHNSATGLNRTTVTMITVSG
Excerpt: as §1

[4] = molecular target: T4, human CEACAM5 on 293T cells (293T-huCEACAM5 cells) (human, UniProt P06731 35-685); test: flow cytometry on 293T-huCEACAM5 cells
T4 construct: whole, on cells
T4 sequence (looked up): T2 sequence (looked up)
Description: (§2) Binding of recombinant anti-CEACAM5/6 dual-binding antibodies against human or cynomolgus CEACAM5 or CEACAM6 stable cells were detected by flow cytometry. […] Anti-CEACAM5/6 dual-binding antibodies were incubated with the stable cell lines. Anti-CEACAM5/6 dual-binding antibodies were serially diluted in staining buffer (PBS containing 2% FBS). 50 μL of diluted antibody solution was added to 50 μL of cell suspension containing 1-2×10⁵ cells and incubated at 4° C. for 1 hour. […] After 1-hour incubation at 4° C., cells were washed twice and run on a flow cytometer. […] The results were shown in FIGS. 8-10 and Tables 6 below.

[5] = molecular target: T5, human CEACAM6 on 293T cells (293T-huCEACAM6 cells) (human, UniProt P40199 35-320); test: flow cytometry on 293T-huCEACAM6 cells
T5 construct: whole, on cells
T5 sequence (looked up): T3 sequence (looked up)
Description: as §2

[6] = molecular target: T6, cynomolgus CEACAM5 on CHO-K1 cells (CHOK1-cyno CEACAM5 cells) (cynomolgus monkey); test: flow cytometry on CHOK1-cyno CEACAM5 cells
T6 construct: whole, on cells; also called CHOK1-cynoCECAM5
Description: as §2

[7] = molecular target: T7, recombinant CEACAM5-his protein, biotinylated (UniProt P06731 35-685, limits assumed, biotinylated (sites not given)); test: Octet epitope binning on biotinylated CEACAM5-his; competitor PR304169
T7 construct: not shown: His tag
T7 sequence (looked up): T2 sequence (looked up)
Description: (§3) In epitope binning analysis using Octet, antibodies were tested against other antibodies in a pairwise fashion to see if antibodies block one another's binding to the epitope of the antigen. The first and second antibodies was diluted into same concentration which could saturate the binding of immobilized antigens. Recombinant CEACAM5-his protein was biotinylationed and was then used as antigen and immobilized to SA sensor. The first antibody was associated with antigen and then followed by the second antibody. Data were analyzed by ForteBio Data Analysis Software (version 8.0, Pall ForteBio). The rate of RU values of the same antibody as 2nd antibody to as 1st antibody was calculated as the co-binding rate of this antibody to other antibodies.

[8] = molecular target: T7, recombinant CEACAM5-his protein, …; test: Octet epitope binning on biotinylated CEACAM5-his; competitor PR304294
Description: as §3

binding result [1]: no binding
EC50 [2]: 0.04 nM
EC50 [3]: 0.22 nM
EC50 [4]: 1.26 nM
EC50 [5]: 1.32 nM
EC50 [6]: 2.51 nM
co-binding rate [7]: 1.02%
co-binding rate [8]: 1.8%
B1: PR304294 (antibody, human IgG1, kappa, V domains shown)
VH: EVQLLESGGGLVQPGGSLRLSCAASGFTFSSYAMSWVRQAPGKGLEWVSAISGTTYNTYYAGSVKGRFTISRDNSKNTLYLQMNSLRAEDTAVYYCAKGISVAGYYYYGMDVWGQGTTVTVSS
VL: EIVMTQSPATLSVSPGERATLSCRASQSVISNLAWYQQKPGQAPRLLIYGASTRATGIPARFSGSGSGTEFTLTISSLQSEDFAVYYCHQYNNWPLTFGGGTKVEIKR
notes: Recombinant full antibody

binding result [1]: no binding
EC50 [2]: 0.15 nM
EC50 [3]: 24.1 nM
EC50 [4]: 3.64 nM
EC50 [5]: 10.6 nM
EC50 [6]: 14.9 nM
co-binding rate [7]: 20.4%
co-binding rate [8]: 24.4%
B2: PR304171 (antibody, human IgG1, kappa, V domains shown)
VH: not shown
VL: B1 VL with S28N, Y36H, G50T, A51T, H89Q
notes: Recombinant full antibody
